Reference: patent US20210079067A1 (US Dept. of Health and Human Services, published 2021)

B1: mAb100 (antibody, V domains shown)
VH: QVQLQESGPGLVKPSDTLSLTCTVSGGSLSSFYWSWIRQPPGKGLEWIGYIYYSGSPNYSPSLESRVTMSVDTTRNQISLKLDSVTAADTAVYYCVRASRSYYWGSYRPTAFDSWGQGTLVTVSS
VL: SYELTQPLSVSVSPGQTAIFTCSGDNLGDKYVCWFQQRPGQSPMLLIYQDNKRPSGIPERFSGSNSGNTATLTISGTQSTDEADYYCQTWDSTVVFGGGTKLTVL
B2: S1-4-A09 antibody (IgG1 expressed version) (antibody, V domains shown)
VH: QVQLQESGPGLVKPSETLSLTCVVSGGILSSFYWNWIRQPPGKGLEWIGNIYYSGSPNYNASFQSRVAISVDTSKNQISLNLKSVTAADTAMYYCVRASRAYLWGSYRPTALDLWGQGSLVTVSS
VL: SYELTQPPSVSVSPGQTATITCSGDKLGDKYTSWFQQRPGQSPLLVIYQDNKRPSGLPARFSGSNSGNTATLTISGTQAMDEADYLCQVWDSGAVFGGGTKLTVLG
B3: S1-4-A09 Fab (Fab, V domains shown)
VH: B2 VH
VL: SYELTQPPSVSVSPGQTATITCSGDKLGDKYTSWFQQRPGQSPLLVIYQDNKRPSGLPARFSGSNSGNTATLTISGTQAMDEADYLCQVWDSGAVFGGGTKLTVL

How the values were obtained:
[1] = molecular target: T1, Zaire ebolavirus full-length GP (Zaire ebolavirus, UniProt Q05320 33-650); assay: ELISA on plates coated with purified full-length Zaire ebolavirus GP, A450
T1 sequence: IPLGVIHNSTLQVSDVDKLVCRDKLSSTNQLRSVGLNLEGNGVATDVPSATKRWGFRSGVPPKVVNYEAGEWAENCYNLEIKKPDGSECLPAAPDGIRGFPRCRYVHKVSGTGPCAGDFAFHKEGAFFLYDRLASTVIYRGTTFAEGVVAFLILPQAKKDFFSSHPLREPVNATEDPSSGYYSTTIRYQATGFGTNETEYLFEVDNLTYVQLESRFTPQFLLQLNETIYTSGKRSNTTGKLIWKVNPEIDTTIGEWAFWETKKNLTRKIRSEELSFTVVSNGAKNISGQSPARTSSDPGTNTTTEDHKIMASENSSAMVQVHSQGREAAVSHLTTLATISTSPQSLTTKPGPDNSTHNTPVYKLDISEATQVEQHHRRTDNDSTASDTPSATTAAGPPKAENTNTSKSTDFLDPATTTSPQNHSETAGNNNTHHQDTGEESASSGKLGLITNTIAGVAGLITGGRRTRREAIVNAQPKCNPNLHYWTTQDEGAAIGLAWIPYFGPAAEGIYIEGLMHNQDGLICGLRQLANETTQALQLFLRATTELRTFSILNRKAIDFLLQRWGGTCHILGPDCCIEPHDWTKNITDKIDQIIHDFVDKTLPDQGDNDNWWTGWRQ

[2] = molecular target: T2, Zaire ebolavirus secreted GP (sGP) (Zaire ebolavirus, UniProt P60170 33-324); assay: ELISA on plates coated with purified Zaire ebolavirus sGP, A450
T2 sequence: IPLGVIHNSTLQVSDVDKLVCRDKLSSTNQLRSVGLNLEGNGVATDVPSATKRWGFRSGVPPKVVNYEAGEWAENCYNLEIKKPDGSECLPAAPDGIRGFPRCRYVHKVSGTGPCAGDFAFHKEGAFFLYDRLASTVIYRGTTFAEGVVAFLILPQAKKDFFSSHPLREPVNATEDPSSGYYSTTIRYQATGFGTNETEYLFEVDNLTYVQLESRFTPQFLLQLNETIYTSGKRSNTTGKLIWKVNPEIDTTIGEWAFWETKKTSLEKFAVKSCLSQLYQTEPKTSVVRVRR

[3] = molecular target: T2, Zaire ebolavirus secreted GP (sGP); assay: biolayer interferometry, pH 7.4

Row | Binder | EC50 (read off the curve) [1] | binding result [2] | binding result [3]
1 | B1 | ~0.02 µg/mL |  | 
2 | B2 | ~0.03 µg/mL | no binding | 
3 | B3 |  |  | no binding
